Data: patent US20220356229A1 (published 2022)

How the values were obtained:
[1] = biological target: SARS-CoV-2 full length Spike protein, wild type (SARS-CoV-2, UniProt P0DTC2 14-1208)
SARS-CoV Spike protein = SARS-CoV Spike protein (SARS-CoV, UniProt P59594 14-1190)
[2] = biological target: SARS-CoV-2 Spike (S) protein, wild type (SARS-CoV-2, UniProt P0DTC2 14-1208); assay: HT-SPR Carterra LSA; mAb coupled to chip, Spike in solution; 1:1 Langmuir fit

| Binder | bead binding signal (fold over isotype) [1] [fold over isotype] | Kd [2] [nM] | koff [2] [s⁻¹] | kon [2] [M⁻¹ s⁻¹] | also measured |
| --- | --- | --- | --- | --- | --- |
| antibody 316 (antibody, V domains shown) VH: QVHLVESGGGVVQPGRSLRLSCAASGFTLTAYAMHWVRQAPGKRLEWVALISYDGSVKKYADSVKGRITVSGDTSTNTLHLQMNSLRADDTAVYYCVRGGVSGPNSFDLWGQGTMVTVSS VL: DVVMTQSPLSLPVTLGQPASMSCRSSQSLEYSDGNTYVNWFHQRPGQSPRRLIYKVSYRDSGVPDRFSGSGSGTDFTLQISRVEAEDVGIYYCMQGTHWPVTFGQGTKVEIK | 442 | – | – | – | – |
| antibody 317 (antibody, V domains shown) VH: QVQLVQSGAEVKKPGASVKVSCKVSGYTLTELSMHWVRQAPGKGLEWMGGFDPEDGETIYAQKFQGRVTMTEDTSTDTAYMELSSLRSEDTAVYYCASSPAAAGTSQYYYYYGMDVWGQGTTVTVSS VL: not shown | 890 | – | – | – | – |
| antibody 320 (antibody, V domains shown) VH: QVQLVQSGAEVKKPGASVKVSCKASGYTFTSYGISWVRQAPGQGLEWMGWISAYNGNTNYAQKLQGRVTMTTDTSTRTAYMELRSLRSDDTAVYYCARVGCYYDSSGYSCAENFQHWGQGTLVTVSS VL: QSVLTQPPSVSGAPGQRVTISCTGSSSNIGAGYDVHWYQQLPGTAPKLLIYGNSNRPSGVPDRFSGSKSGTSASLAITGLQAEDEADYYCQSYDSSLSALFGGGTKLTVL | 1200 | – | – | – | – |
| antibody 323 (antibody, V domains shown) VH: QVQLVQSGAEVKKPGASVKVSCKVSGYTLTELSMHWVRQAPGKGLEWMGGFDPEDGETIYAQKFQGRVTMTEDTSTDTAYMELSSLRSEDTAVYYCATSTIFAPGGWFDPWGQGTLVTVSS VL: QSALTQPASVSGSPGQSITISCTGTSSDVGSYNLVSWYQQHPGKAPKLMIYEVSKRPSGVSNRFSGSKSGNTASLTISGLQAEDEADYYCCSYAGSTHYVFGTGTKVTVL | 994 | – | – | – | – |
| antibody 324 (antibody, V domains shown) VH: QVQLQESGPGLVKPSGTLSLTCAVSGGSISSSNWWSWVRQPPGKGLEWIGEIYHSGSTNYNPSLKSRVTISVDNSKNQFSLKLSSVTAADTAVYYCARESVAAAGISYYYYGMDVWGQGTTVTVSS VL: EIVLTQSPGTLSLSPGERATLSCRASQSVSGRYLAWYQQKPGQAPRLLIYGASSRATGIPDRFSGSGSGTDFTLTISRLEPEDFAVYYCQHYGSSPGTFGQGTRLEIK | 1.13 | – | – | – | – |
| antibody 326 (antibody, V domains shown) VH: QITLKESGPTLVKPTQTLTLTCTFSGFSLNTSGVGVGWIRQPPGKALEWLSLIFWNDDKRYSPSLRSRLTITKDTSKNQVVLTMTNMDPVDTATYFCAHRNSGWSLKFDSWGQGSLVTVSA VL: DIQMTQSPSSVSASVGDRVTITCRARQGISSWLVWYQQKPGKAPKLLIFGASSLQSGVPSRFNASGTGTEFTLTISSLQPEDFATYYCQQADSFPITFGQGTRLEIK | 193 | – | – | – | – |
| antibody 327 (antibody, V domains shown) VH: QVQLVESGGGVVQPGRSLRLSCAASGFNLSNYAMHWVRQASGKGLEWVSLISYDGSIKYYTDSVKGRFTVSGDNSKNTLFLQMNSLRPDDSALYYCVRGGVSGPNSFDMWGQGTTVTVSS VL: DVVMTQSPLSLPVTLGQPASISCRSSQSLVYSDGNTYVNWFQQRPGQSPRRLIYQVSIRASGVPDRFSGSGSGTDFALKISRVEAEDVGIYYCMQGTHWPVTFGQGTKVEIK | 413 | – | – | – | – |
| antibody 328 (antibody, V domains shown) VH: QVQLQESGPGLVKPSGTLSLTCAVSGGSISSSNWWSWVRQPPGKGLEWIGEIYHSGSTNYNPSLKSRVTISVDNSKNQFSLKLSSVTAADTAVYYCARESVAAAGISYYYYGMDVWGQGTTVTVSS VL: DIQMTQSPSSLSASVGDRVTITCRASQGIRNDLGWYQQKPGKAPKRLIYAASSLQSGVPSRFSGSGSGTEFTLTVSGLQPEDFATYYCLQYNSSPLTFGGGTKVEIK | 1.2 | – | – | – | – |
| antibody 329 (antibody, V domains shown) VH: EVQLVESGGGLVQPGGSLRLSCAASGFTFSSYWMHWVRQAPGKGLVWVSRINSDGSSTSYADSVKGRFTISRDNAKNTLYLQMNSLRAEDTAVYYCAREGIVATITLDYWGQGTLVTVSS VL: not shown | 497 | – | – | – | – |
| antibody 331 (antibody, V domains shown) V domain 1: QITLKESGPTLVKPTETLTLTCSFSGFSLTKTGEAAGWIRQAPGRALEWVTVIFWDDDKRYSPSLQNRISVTKDTSKNQVVLRMTNVARFDTGTYFCWAMGGPGKEYFGQGTLVAVSS V domain 2: QSVLTQPPSVSGAPGQRVTISCTGTSSSIGPYSDVHWYQHVSGKAPRLLIFGNSNRPSGVPDRFSGSKSGTSASLVIAGLQAEDEADYYCQSYDSSLGEIYVFGTGTTVTVL | 850 | – | – | – | – |
| antibody 339 (antibody, V domains shown) V domain 1: QITLKESGPTLVKPTETLTLTCSFSGFSLTRTGEAAGWIRQAPGRALEWVTVIFWDDDKRYSPSLQSRLTVTKDTSKNQVVLTMTNVARFDTATYFCWAMGGPGKEYFGQGTQVAVSS V domain 2: QSVLTQPPSVSGAPGQRVTISCTGTSSSIGPYSDVHWYQHVSGKAPRLLIFGNSNRPSGVPDRFSGSKSGTSASLVIAGLQAEDEADYYCQSYDSSLGEIYVFGTGTTVTVL | 874 | – | – | – | – |
| antibody 332 (antibody, V domains shown) VH: QVTLRESGPALVKPTQTLTLTCTFSGFSLSTSGMCVSWIRQPPGKALEWLALIDWDDDKYYSTSLKTRLTISKDTSKNQVVLTMTNMDPVDTATYYCARIHDDILTGYHYVDYWGQGTLVTVSS VL: not shown | 1.22 | – | – | – | – |
| antibody 379 (antibody, V domains shown) VH: QVQLQESGPGLVKPSQTLSLTCTVSGGSISSGGYYWSWIRQHPGKGLEWIGYIYYSGSTYYNPSLKSRVTISVDTSKNQFSLKLSSVTAADTAVYYCARGPLDFWSGYFRLRYFDSWGQGTLVTVSS VL: QSALTQPASVSGSPGQSITISCTGTSSDVGGYNYVSWYQQHPGKAPKLMIYDVTNRPSGVSNRFSGSKSGNTASLTISGLQAEDEADYYCSSYTSSSTCVFGTGTKVTVL | – | – | – | – | bead binding signal (median fluorescence, fold over isotype control) (SARS-CoV Spike protein): 5.9 fold over isotype control |
| antibody 380 (antibody, V domains shown) VH: QVQLVESGGGVVQPGRSLRLSCAASGFTLKNYGMHWVRQAPGKGLEWVIVLSFDGSDEYKADSVRGRFTVSRDNSKNTLFLQMNSLRPDDTAVYYCAREQPTMIEGGRGPFDIWGQGTMVTVSS VL: EVVMTQSPATLSVSPGDRATLSCRASQGVNSNLAWYQQKPGQAPRLLIYAASTRATGIPARFSASGSGTHFTLTISSLQSEDFAVYYCLQYNNWPPWTFGQGTKLEIK | – | – | – | – | bead binding signal (median fluorescence, fold over isotype control) (SARS-CoV Spike protein): 1.21 fold over isotype control |
| anti-SARS-CoV-2 antibody 851 (antibody, V domains shown) VH: QITLKESGPTLVKPTQTLTLTCTFSGFSLSTNGVGMGWIRQPPGKALEWLALIYWDDDQFYSPSLKSRLTITRDTSKNQVVLTMTNMDPVDTATYYCAQAFYESFGFYSWGQGTLVTVSS VL: NFMLTQPHSVSESPGKTVIISCTRSIGSIASNYVQWYQQRPGSAPTIVVFEDNERPSGVPDRFSGSIDRSSNSASLTISGLKTEDEADYYCQSYDGSSELVFGGGTKLTVLG | – | ≤ 1.44 | ≤ 1e-05 | 6960 | – |
| anti-SARS-CoV-2 antibody 923 (antibody, V domains shown) VH: EVQLVESGGGVVRPGGSLRLSCAASGFIFDDYDMTWVRQAPGKGLEWVSGISWNGGNTGYADSVKGRFTISRDNAKNSLYLQMNSLRAEDTALYHCAVIMSPIPRYSGYDWAGGAFDIWGQGTMVTVSS VL: SSELTQDPAVSVALGQTVRITCQGDSLRSYYASWYQQKPGQVPILVIYDKNNRPSGIPDRFSGSSSGNTASLTITGAQAEDEADYYCNSRDSSGNAVVFGGGTKLTVLG | – | ≤ 0.0161 | ≤ 1e-05 | 653000 | – |
| anti-SARS-CoV-2 antibody 970 (antibody, V domains shown) VH: EVQLVESGGGLVQPGGSLRLSCAASGFTFSSYWMSWVRQAPGKGLEWVANINKDGSEKYYVDSVKGRFTISRDNAKNSLYLQMNSLRAEDTAVYFCARDYRYFDWLLSQIDLEIDYFDYWGQGTLVTVSS VL: not shown | – | 0.482 | 0.00034 | 706000 | – |
| anti-SARS-CoV-2 antibody 1015 (antibody, V domains shown) VH: EVQLVESGGGLVQPGGSLRLSCAASGFTFSSYWMHWVRQAPGKGLVWVSHINSDGSSTSYADSVKGRFTISRDNAKNTLYLQMNSLRAEDTAVYYCARGLRYFDLDVWGQGTTVTVSS VL: QSVLTQPPSVSEAPRQRVTISCSGSSSNIGNNAVNWYQQLPGKAPKLLIFYDDLLPSGVSDRFSGSKSGTSASLAISGLQSEDEADYYCAAWDDSLNGGVFGGGTKLTVLG | – | 0.0439 | 2.19e-05 | 500000 | – |
| anti-SARS-CoV-2 antibody 1037 (antibody, V domains shown) VH: QITLKESGPTLVKPTQTLTLTCTFSGFSLSTSGVGVGWIRQPPGKALEWLALIYWDDDKRYSPSLKSRLTITKDTSKNQVVLTMTNMDPVDTATYYCAHHTITRINDYWGQGTLVTVSS VL: QSALTQPASVSGSPGQSITISCTATSSDVGAYNYVSWYQQHPGKAPKLMIYDVSKRPSGVSNRFSGSKSGNTASLTISGLQAEDEADYYCSSYTSSSTVFGGGTKLTVLG | – | 0.0319 | 1.36e-05 | 443000 | – |
| anti-SARS-CoV-2 antibody 1075 (antibody, V domains shown) VH: QVQLVQSGAEVKKPGASVKVSCKVSGYTLIELSMHWVRQAPGKGLEWMGGFDPEDGETIYAQKFQGRVTMTEDTSTDTAYMELSSLRSEDTAVYYCATEWAYYGSGSYLGYWGQGTLVTVSS VL: EIVMTQSPATLSVSPGERATLSCRASQSVSSNLAWFQQKPGQAPRLLIYGASTRVTVIPARFSGSGSGTEFTLTISSLQSEDFAVYYCQQYNNWPRTFGQGTKVEIKR | – | 0.717 | 3.04e-05 | 227000 | – |
| anti-SARS-CoV-2 antibody 1139 (antibody, V domains shown) VH: QVQLVQSGAEVKKPGASVKVSCKASGYTFSSYEINWVRQATGQGLEWMGRMTLNSGNTGYAQNFQGRVTMTRDTSISTAYMELSGLRSEDTAVYYCARMRSGWPTHGRPDDYWGQGTLVTVSS VL: not shown | – | 0.0433 | 5.31e-05 | 1.22e+06 | – |
| anti-SARS-CoV-2 antibody 1149 (antibody, V domains shown) VH: QVQLVQSGAEVKKPGASVKVSCKASGYTFASYDINWVRQATGQGPEWMGWMIPNIGNTGYAQKFQGRVTMTRNTSISTAYMELSSLTSEDTAVYYCARVSRLFNDFGLRHEAPVDFWGQGTRVTVSS VL: QSVLTQPPSVSGAPGQRVTISCTGSSSNIGAGYDVHWYQQLPGTAPKLLIYGYSSRPSGVPDRFSGSKSGTSASLAITGLQAEDEADYYCQSYDSSLSVLFGGGTKLTVLG | – | ≤ 0.0151 | ≤ 1e-05 | 664000 | – |
